Consider 30 molecules from patent US7101851 (dated 2006).

Experiment [1] concerns the target T1, alpha subunit of the human FcεRI receptor (IgE high affinity receptor), expressed on Chinese hamster ovary … (human, UniProt P12319 26-257).
T1 construct: whole, on cells; also called CHO FcεRI+ cells; FcεRIα
T1 sequence (looked up): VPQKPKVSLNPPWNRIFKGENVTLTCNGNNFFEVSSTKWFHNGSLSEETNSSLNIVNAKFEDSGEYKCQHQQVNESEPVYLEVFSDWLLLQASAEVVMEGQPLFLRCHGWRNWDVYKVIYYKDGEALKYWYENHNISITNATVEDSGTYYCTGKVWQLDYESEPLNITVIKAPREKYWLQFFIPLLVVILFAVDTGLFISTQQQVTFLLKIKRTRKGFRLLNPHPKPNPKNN
The experiment is described as follows: inhibition of 125I-IgE binding to CHO cells expressing human FcεRI alpha; competitor IgE. As for the experimental part:
(§1) To determine the ability of peptides to inhibit IgE binding to FcεRI, a cell-based binding assay was used with radiolabeled IgE. Chinese hamster ovary cells expressing the alpha subunit of the human FcεRI receptor were cultured overnight in Falcon 96 well microtiter plates at a concentration of 5 ×10^4 cells per well. The following day the cells were rinsed three times with PBS and then once with F12/DMEM. Peptide stocks were reconstituted in 100 mM Hepes buffered water, pH 7.2, at a concentration of 5 mg/mL. Working concentrations of the peptide were diluted in assay buffer (see below). 75 uL of a desired concentration of peptide was added to the top row of a separate 96 well microtiter plate and serially diluted 1:3 in 50 uL of the assay buffer (F12/DMEM, 1% BSA, 0.05% NaN_3 and 0.025 mM Hepes pH 7.2). Starting concentrations ranged from 50–500 uM. Next, 50 uL of the diluted peptide was transferred to the 96 microtiter well plate containing a monolayer of CHO FcεRI+ cells. […] Cells were […]

In experiment [2] the target is T2, alpha subunit of the human FcεRI receptor expressed on Chinese hamster ovary cells (human, UniProt P12319 26-257).
T2 construct: whole, on cells; also called CHO FcεRI+ cells
T2 sequence (looked up): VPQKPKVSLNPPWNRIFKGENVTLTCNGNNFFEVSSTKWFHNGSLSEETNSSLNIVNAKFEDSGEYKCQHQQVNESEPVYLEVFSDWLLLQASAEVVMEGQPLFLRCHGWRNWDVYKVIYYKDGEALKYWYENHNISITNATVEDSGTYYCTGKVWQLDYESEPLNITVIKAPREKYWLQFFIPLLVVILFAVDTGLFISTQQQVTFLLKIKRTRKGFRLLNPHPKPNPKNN
Description: inhibition of 125I-IgE binding to CHO cells expressing human FcεRI alpha subunit. As for the experimental part: as §1

The IC50 is the midpoint of a concentration-inhibition curve. A lower IC50 goes with greater potency.

Bridges are numbered along the chain shown (N, C = ends). Where no end group is shown, it is not given here. [ ]: non-standard residue; d: D form. Ava = NCCCCC(=O)O

B1: IGE199 (peptide)
peptide: VQCPDFCY[Ava]LCPDVCYV-NH2
modifications: disulfide (positions not given here); not fully specified (bridges); printed as VQCPDFCYavaLCPDVCYV-nh2
As to B1, the IC50 in experiment [1] is 6.67 µM.

B2: IGE201 (peptide)
peptide: VQCPDFCY[Ava]LCPDQCYV-NH2
modifications: disulfide (positions not given here); not fully specified (bridges); printed as VQCPDFCYavaLCPDQCYV-nh2
Turning to B2, in experiment [1], the IC50 worked out at 14.6 µM.

B3: IGE198 (peptide)
peptide: VQCPHFCY[Ava]LCPDVCYV-NH2
modifications: disulfide (positions not given here); not fully specified (bridges); printed as VQCPHFCYavaLCPDVCYV-nh2
Regarding B3, the IC50 in experiment [1] came out at 7.8 µM.

B4: IGE200 (peptide)
peptide: VQCPKFCY[Ava]LCPDVCYV-NH2
modifications: disulfide (positions not given here); not fully specified (bridges); printed as VQCPKFCYavaLCPDVCYV-nh2
B4: the IC50 in experiment [1] is 11.7 µM.

NLPRCTEGPWGWVCM-NH2 (disulfide 5-14 (inferred), synthetic) [IGE057] came in with an IC50 in experiment [2] of 0.8 µM.

On to NLPRCTEGPWGWVCI (disulfide 5-14 (inferred), synthetic) [IGE075], for which the IC50 in experiment [2] is 1.4 µM. In experiment [2], NLPRCTEGPWAWVCM (disulfide 5-14 (inferred), synthetic) [IGE074] came in with an IC50 of 43 µM. NLPRCTEGPWGAVCM (disulfide 5-14 (inferred), synthetic) [IGE073] had an IC50 in experiment [2] of 118 µM. Take NLPRCTEGPAGWVCM (disulfide 5-14 (inferred), synthetic) [IGE072]: the IC50 in experiment [2] was found to be 81.5 µM.

Take Ac-NLPRCTEGPWGWVCMAAD-NH2 (disulfide 5-14 (inferred), synthetic) [IGE042]: in experiment [2], the IC50 was 1.5 µM. Still for that read-out and setting: the result for Ac-NLPRCTEGPWGWVCMADD-NH2 (disulfide 5-14 (inferred), synthetic) [IGE031] reads 1.1 µM. On the same count and under the same terms, the result for Ac-NLPRCTAGPWGWVCMAAD-NH2 (disulfide 5-14 (inferred), synthetic) [IGE059] reads 10.5 µM; that for Ac-NLPRCTEGPNGWVCMAAD-NH2 (disulfide 5-14 (inferred), synthetic) [IGE050], 19.4 µM. Still for that read-out and setting: for NLPRCTEGPNGWVCMAAD-NH2 (disulfide 5-14 (inferred), synthetic) [IGE051] the value was 23.7 µM; for Ac-NLPRCTEGPKGWVCMADD-NH2 (disulfide 5-14 (inferred), synthetic) [IGE032], 10.8 µM.

B5: IGE202 (peptide)
peptide: VQCPDFCY[Ava]CPDVCYV-NH2
modifications: disulfide (positions not given here); not fully specified (bridges); printed as VQCPDFCYavaCPDVCYV-nh2
For B5, the IC50 in experiment [1] was 132 µM.

In experiment [1], VQCPHFCYEL[Ava]ELCPDVCYV-NH2 (disulfide 7-14, 3-18) [IGE186] displayed an IC50 of 0.18 µM.

B6: IGE203 (peptide)
peptide: VQCPKFCYE[Ava]CPDVCYV-NH2
modifications: disulfide (positions not given here); not fully specified (bridges); printed as VQCPKFCYEavaCPDVCYV-nh2; also: dimer
With B6, in experiment [1], the IC50 came to 12.9 µM.

B7: IGE196 (peptide)
peptide: VQCPHFCYDASELCPDVCYV-NH2
modifications: disulfide (positions not given here); not fully specified (bridges); printed as VQCPHFCYDASELCPDVCYV-nh2
On to B7, for which the 50% inhibitory concentration (IC50) in experiment [1] stood at 0.09 µM.

B8: IGE197 (peptide)
peptide: VQCPDFCYDASRLCPDVCYV-NH2
modifications: disulfide 7-14, 3-18; N-terminus assumed
SMILES: CC(C)C[C@@H]1NC(=O)[C@H](CCCNC(=N)N)NC(=O)[C@H](CO)NC(=O)[C@H](C)NC(=O)[C@H](CC(=O)O)NC(=O)[C@H](Cc2ccc(O)cc2)NC(=O)[C@@H]2CSSC[C@H](NC1=O)C(=O)N1CCC[C@H]1C(=O)N[C@@H](CC(=O)O)C(=O)N[C@@H](C(C)C)C(=O)N[C@H](C(=O)N[C@@H](Cc1ccc(O)cc1)C(=O)N[C@H](C(N)=O)C(C)C)CSSC[C@H](NC(=O)[C@H](CCC(N)=O)NC(=O)[C@@H](N)C(C)C)C(=O)N1CCC[C@H]1C(=O)N[C@@H](CC(=O)O)C(=O)N[C@@H](Cc1ccccc1)C(=O)N2
Consider B8, for which, in experiment [1], the IC50 turned out to be 0.12 µM. On the same count and under the same terms, for VQCPHFCYELDYEADRLCPDVCYV-NH2 (disulfide (positions not given here); also: two disulfides, pairing not settled) [IGE188] the value was 0.98 µM.

B9: IGE185 (peptide)
peptide: VQCPHFCYAEPLCPDVCYV-NH2
modifications: disulfide 7-13, 3-17; N-terminus assumed
SMILES: CC(C)C[C@@H]1NC(=O)[C@@H]2CCCN2C(=O)[C@H](CCC(=O)O)NC(=O)[C@H](C)NC(=O)[C@H](Cc2ccc(O)cc2)NC(=O)[C@@H]2CSSC[C@H](NC1=O)C(=O)N1CCC[C@H]1C(=O)N[C@@H](CC(=O)O)C(=O)N[C@@H](C(C)C)C(=O)N[C@H](C(=O)N[C@@H](Cc1ccc(O)cc1)C(=O)N[C@H](C(N)=O)C(C)C)CSSC[C@H](NC(=O)[C@H](CCC(N)=O)NC(=O)[C@@H](N)C(C)C)C(=O)N1CCC[C@H]1C(=O)N[C@@H](Cc1c[nH]cn1)C(=O)N[C@@H](Cc1ccccc1)C(=O)N2
In experiment [1], B9 displayed an IC50 of 0.076 µM.

B10: IGE184 (peptide)
peptide: VQCPHFCYDYELCPDVCYV-NH2
modifications: disulfide 7-13, 3-17; N-terminus assumed
SMILES: CC(C)C[C@@H]1NC(=O)[C@H](CCC(=O)O)NC(=O)[C@H](Cc2ccc(O)cc2)NC(=O)[C@H](CC(=O)O)NC(=O)[C@H](Cc2ccc(O)cc2)NC(=O)[C@@H]2CSSC[C@H](NC1=O)C(=O)N1CCC[C@H]1C(=O)N[C@@H](CC(=O)O)C(=O)N[C@@H](C(C)C)C(=O)N[C@H](C(=O)N[C@@H](Cc1ccc(O)cc1)C(=O)N[C@H](C(N)=O)C(C)C)CSSC[C@H](NC(=O)[C@H](CCC(N)=O)NC(=O)[C@@H](N)C(C)C)C(=O)N1CCC[C@H]1C(=O)N[C@@H](Cc1c[nH]cn1)C(=O)N[C@@H](Cc1ccccc1)C(=O)N2
For B10, the IC50 in experiment [1] stood at 0.11 µM. With Ac-CTEGPWGWFCI-NH2 (disulfide 1-10 (inferred), synthetic) [IGE046], the IC50 in experiment [2] worked out at 549 µM. Same read-out and setting: the result for Ac-CLEGPWGWFCI-NH2 (disulfide 1-10 (inferred), synthetic) [IGE044] reads 194 µM. For CLEGPWGWFCI-NH2 (disulfide 1-10 (inferred), synthetic) [IGE045], the IC50 in experiment [2] came out at 300 µM. Still for that read-out and setting: for Ac-CLEGPWGWVCI-NH2 (disulfide 1-10 (inferred), synthetic) [IGE080] the value was 410 µM; for CTEGPWGWFCI-NH2 (disulfide 1-10 (inferred), synthetic) [IGE047], 741 µM.

B11: IGE187 (peptide)
peptide: VQCPHFCYE[Ava]ELCPDVCYV-NH2
modifications: disulfide (positions not given here); not fully specified (bridges); printed as VQCPHFCYEavaELCPDVCYV-nh2
On to B11, for which, in experiment [1], the IC50 came out at 0.09 µM.

For the molecule VQCPHFCYELDYEAGDERLCPDVCYV-NH2 (disulfide (positions not given here); also: two disulfides, pairing not settled) [IGE189], in experiment [1], the IC50 is 0.15 µM.
